Test results taken from patent publication US20130209454A1 (CALIFORNIA INSTITUTE OF TECHNOLOGY, published 2013).

Columns and labels:
Assay in all cases: cell-based or functional assay
[1] = target: HIV-1 strain T250-4 envelope (gp120) (HIV-1)
[2] = target: HIV-1 strain 620345.c01 envelope (gp120) (HIV-1)
[3] = target: HIV-1 strain 3817.v2.c59 envelope (gp120) (HIV-1)
[4] = target: HIV-1 strain 6540.v4.c1 envelope (gp120) (HIV-1)
[5] = target: HIV-1 strain Du422.1 envelope (gp120) (HIV-1)
[6] = target: HIV-1 strain Du172.17 envelope (gp120) (HIV-1)
[7] = target: HIV-1 strain 231966.c02 envelope (gp120) (HIV-1)
[8] = target: HIV-1 strain THRO4156.18 envelope (gp120) (HIV-1)
[9] = target: HIV-1 strain 3103.v3.c10 envelope (gp120) (HIV-1)
[10] = target: HIV-1 strain T255-34 envelope (gp120) (HIV-1)
[11] = target: HIV-1 strain Ce1176_A3 envelope (gp120) (HIV-1)
[12] = target: HIV-1 strain CNE58 envelope (gp120) (HIV-1)
[13] = target: HIV-1 strain QH0692.42 envelope (gp120) (HIV-1)
[14] = target: HIV-1 strain T257-31 envelope (gp120) (HIV-1)
[15] = target: HIV-1 strain R1166.c01 envelope (gp120) (HIV-1)
[16] = target: HIV-1 strain Ce0393_C3 envelope (gp120) (HIV-1)
[17] = target: HIV-1 strain X2131_C1_B5 envelope (gp120) (HIV-1)
[18] = target: HIV-1 strain CNE17 envelope (gp120) (HIV-1)
[19] = target: HIV-1 strain ZM214M.PL15 envelope (gp120) (HIV-1)
[20] = target: HIV-1 strain ZM197M.PB7 envelope (gp120) (HIV-1)
[21] = target: HIV-1 strain Ce703010054_2A2 envelope (gp120) (HIV-1)
[22] = target: HIV-1 strain PVO.4 envelope (gp120) (HIV-1)
[23] = target: HIV-1 strain 1054_07_TC4_1499 envelope (gp120) (HIV-1)
[24] = target: HIV-1 strain CAAN5342.A2 envelope (gp120) (HIV-1)
[25] = target: HIV-1 strain Ce2010_F5 envelope (gp120) (HIV-1)
[26] = target: HIV-1 strain 0330.v4.c3 envelope (gp120) (HIV-1)
[27] = target: HIV-1 strain Q461.e2 envelope (gp120) (HIV-1)
[28] = target: HIV-1 strain WITO4160.33 envelope (gp120) (HIV-1)
[29] = target: HIV-1 strain P1981_C5_3 envelope (gp120) (HIV-1)
[30] = target: HIV-1 strain 1006_11_C3_1601 envelope (gp120) (HIV-1)
[31] = target: HIV-1 strain 62357_14_D3_4589 envelope (gp120) (HIV-1)
[32] = target: HIV-1 strain Q259.d2.17 envelope (gp120) (HIV-1)
[33] = target: HIV-1 strain SC422661.8 envelope (gp120) (HIV-1)
[34] = target: HIV-1 strain TRJO4551.58 envelope (gp120) (HIV-1)
[35] = target: HIV-1 strain 6811.v7.c18 envelope (gp120) (HIV-1)
[36] = target: HIV-1 strain C3347.c11 envelope (gp120) (HIV-1)
[37] = target: HIV-1 strain Q842.d12 envelope (gp120) (HIV-1)
[38] = target: HIV-1 strain 0815.v3.c3 envelope (gp120) (HIV-1)
[39] = target: HIV-1 strain RHPA4259.7 envelope (gp120) (HIV-1)
[40] = target: HIV-1 strain REJO4541.67 envelope (gp120) (HIV-1)
[41] = target: HIV-1 strain WEAU_d15_410_787 envelope (gp120) (HIV-1)

B1: NIH45-46 IgG (antibody, V domains shown)
VH: QVRLSQSGGQMKKPGESMRLSCRASGYEFLNCPINWIRLAPGRRPEWMGWLKPRGGAVNYARKFQGRVTMTRDVYSDTAFLELRSLTSDDTAVYFCTRGKYCTARDYYNWDFEHWGRGAPVTVSS
VL: EIVLTQSPATLSLSPGETAIISCRTSQSGSLAWYQQRPGQAPRLVIYSGSTRAAGIPDRFSGSRWGADYNLSISNLESGDFGVYYCQQYEFFGQGTKVQVDI
[1]
  neutralization IC80: > 50 µg/mL
[2]
  neutralization IC80: > 50 µg/mL
[3]
  neutralization IC80: > 50 µg/mL
[4]
  neutralization IC80: > 50 µg/mL
[5]
  neutralization IC80: > 50 µg/mL
[6]
  neutralization IC80: > 50 µg/mL
[7]
  neutralization IC80: 9.64 µg/mL
[8]
  neutralization IC80: 8.22 µg/mL
[9]
  neutralization IC80: 6.15 µg/mL
[10]
  neutralization IC80: 3.44 µg/mL
[11]
  neutralization IC80: 3.17 µg/mL
[12]
  neutralization IC80: 2.08 µg/mL
[13]
  neutralization IC80: 1.71 µg/mL
[14]
  neutralization IC80: 1.38 µg/mL
[15]
  neutralization IC80: 1.21 µg/mL
[16]
  neutralization IC80: 0.93 µg/mL
[17]
  neutralization IC80: 0.88 µg/mL
[18]
  neutralization IC80: 0.734 µg/mL
[19]
  neutralization IC80: 0.59 µg/mL
[20]
  neutralization IC80: 0.55 µg/mL
[21]
  neutralization IC80: 0.538 µg/mL
[22]
  neutralization IC80: 0.41 µg/mL
[23]
  neutralization IC80: 0.404 µg/mL
[24]
  neutralization IC80: 0.4 µg/mL
[25]
  neutralization IC80: 0.357 µg/mL
[26]
  neutralization IC80: 0.3 µg/mL
[27]
  neutralization IC80: 0.291 µg/mL
[28]
  neutralization IC80: 0.26 µg/mL
[29]
  neutralization IC80: 0.24 µg/mL
[30]
  neutralization IC80: 0.196 µg/mL
[31]
  neutralization IC80: 0.19 µg/mL
[32]
  neutralization IC80: 0.154 µg/mL
[33]
  neutralization IC80: 0.13 µg/mL
[34]
  neutralization IC80: 0.13 µg/mL
[35]
  neutralization IC80: 0.113 µg/mL
[36]
  neutralization IC80: 0.094 µg/mL
[37]
  neutralization IC80: 0.073 µg/mL
[38]
  neutralization IC80: 0.052 µg/mL
[39]
  neutralization IC80: 0.047 µg/mL
[40]
  neutralization IC80: 0.035 µg/mL
[41]
  neutralization IC80: 0.015 µg/mL
